Changes are numbered by the printed parent chain. In names and notes the source's numbering stands. Where two headings read alike, the source gives them in different places.
Experiments:
[1] = biological target: T1, FcgRIIaR (human, UniProt P12318 34-217); assay: SPR (Biacore), antibody captured on chip, FcgR as analyte
T1 construct: extracellular domain; R131 allotype; also called FcγRIIa R; FcgRIIa type R; not shown: C-terminal His tag
T1 sequence (looked up): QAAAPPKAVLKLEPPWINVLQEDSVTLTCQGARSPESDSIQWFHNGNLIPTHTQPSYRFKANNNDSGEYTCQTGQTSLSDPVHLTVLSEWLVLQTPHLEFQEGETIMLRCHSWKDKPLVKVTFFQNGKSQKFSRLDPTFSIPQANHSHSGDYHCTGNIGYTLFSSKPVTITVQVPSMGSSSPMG
Description: (§1) The variants described above were assessed for their binding to FcgR according to the method described in Reference Example 8.
(§2) Analysis of interaction between obj ective antibody and the FcγR was carried out using Biacore T100 (GE Healthcare), Biacore T200, Biacore A100, and Biacore 4000. HBS-EP+ (GE Healthcare) was used as the running buffer, and the measurement temperature was set to 25° C. Chips produced by immobilizing the antigen peptide by the amine coupling method to a Series S sensor Chip CM5 (GE Healthcare), chips produced by allowing preliminarily biotinylated antigen peptides to interact with and immobilize onto a Series S Sensor Chip SA (certified) (GE Healthcare), chips produced by immobilizing Protein L (ACTIGEN, BioVision) to Series S Sencor Chip CM5 (GE Healthcare), or chips produced by immobilizing Protein A/G (Thermo Scientific) to Series S Sencor Chip CM5 (GE Healthcare) were used. Antibodies of interest were captured onto these chips, and allowed to interact to each FcγR diluted with running buffer. To regenerate and repeatedly use the chip, the antibodies captured onto the chip were washed off by reacting 10 mM glycine-HCl, pH 1.5.

[2] = biological target: T2, FcgRIIIaV (human, UniProt P08637 17-208); assay: as above
T2 construct: extracellular domain; V158 allotype; also called FcγRIIIa V; not shown: C-terminal His tag
T2 sequence (P08637 17-208 F176V limits assumed): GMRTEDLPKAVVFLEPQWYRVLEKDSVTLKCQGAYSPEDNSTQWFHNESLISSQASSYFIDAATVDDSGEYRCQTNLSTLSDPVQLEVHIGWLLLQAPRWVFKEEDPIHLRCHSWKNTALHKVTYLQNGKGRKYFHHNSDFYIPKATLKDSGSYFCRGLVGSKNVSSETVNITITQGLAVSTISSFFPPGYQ
Description: as §1, §2

[3] = biological target: T3, FcgRIIb (human, UniProt P31994 43-217); assay: as above
T3 construct: extracellular domain; also called FcγRIIb; CD32B; not shown: C-terminal His tag
T3 sequence (looked up): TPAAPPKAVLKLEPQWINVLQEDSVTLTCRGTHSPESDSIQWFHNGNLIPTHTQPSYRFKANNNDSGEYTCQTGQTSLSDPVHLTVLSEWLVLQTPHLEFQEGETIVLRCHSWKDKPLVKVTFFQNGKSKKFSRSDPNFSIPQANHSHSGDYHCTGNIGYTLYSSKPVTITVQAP
Description: as §1, §2

[4] = biological target: T4, FcgRIIIaF (human, UniProt P08637 17-208); assay: as above
T4 construct: extracellular domain; F158 allotype; also called FcγRIIIa F; not shown: C-terminal His tag
T4 sequence (P08637 17-208): as the sequence (P08637 17-208 F176V limits assumed) above, with V160F counted along it
Description: as §1, §2

[5] = biological target: T5, FcgRIIaH (human, UniProt P12318 34-217); assay: as above
T5 construct: extracellular domain; H131 allotype; also called FcγRIIa H; FcgRIIa type H; not shown: C-terminal His tag
T5 sequence (looked up): T1 sequence (looked up) with R134H
Description: as §1, §2

[6] = biological target: T1, FcgRIIaR; assay: SPR (Biacore); KD of H240-Kn120/H240-Hl068/L73-k0 divided by KD of the sample
Description: as §1, §2

[7] = biological target: T2, FcgRIIIaV; assay: as above
Description: as §1, §2

[8] = biological target: T3, FcgRIIb; assay: as above
Description: as §1, §2

[9] = biological target: T4, FcgRIIIaF; assay: as above
Description: as §1, §2

[10] = biological target: T5, FcgRIIaH; assay: as above
Description: as §1, §2

[11] = biological target: T6, FcgRIa (human, UniProt P12314 16-292); assay: SPR (Biacore 4000), antibody captured on chip, FcgR as analyte; kd below the limit 5e-5 /s
T6 construct: extracellular domain; also called FcγRIa; FcγRI; not shown: C-terminal His tag
T6 sequence (P12314 16-292): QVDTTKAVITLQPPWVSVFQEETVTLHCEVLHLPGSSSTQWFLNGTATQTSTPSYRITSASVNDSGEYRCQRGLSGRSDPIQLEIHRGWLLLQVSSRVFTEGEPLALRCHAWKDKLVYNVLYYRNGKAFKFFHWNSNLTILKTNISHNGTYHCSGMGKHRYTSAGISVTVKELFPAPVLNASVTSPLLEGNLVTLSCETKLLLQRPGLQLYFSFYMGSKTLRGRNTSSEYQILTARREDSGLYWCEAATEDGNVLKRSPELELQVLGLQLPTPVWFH
Description: as §1, §2

[12] = biological target: T7, FcgRIIa type R extracellular domain with C-terminal His tag (human, UniProt P12318 34-217); assay: SPR (Biacore), antibody captured on chip, soluble FcgR as analyte, kinetic 1:1 fit
T7 construct: extracellular domain; also called FcgRIIaR; FcgRIIa R; not shown: His tag at the C terminus
T7 sequence (looked up): T1 sequence (looked up)

[13] = biological target: T7, FcgRIIa type R extracellular domain …; assay: as above; remark: listed apart in the source
Description: The variants were assessed for the binding activity to FcgR Ia, FcgR IIaR, FcgR IIaH, and FcgRIIb according to the method described in Reference Example 8.
as §2

[14] = biological target: T8, FcgRIIa type H extracellular domain with C-terminal His tag (human, UniProt P12318 34-217); assay: SPR (Biacore), antibody captured on chip, soluble FcgR as analyte; too weak for kinetics, KD from steady-state 1:1 equation
T8 construct: extracellular domain; also called FcgRIIaH; FcgRIIa H; not shown: His tag at the C terminus
T8 sequence (looked up): T1 sequence (looked up) with R134H
Description: (§3) KD can be calculated by substituting the values of Rmax, RI, and C into this equation. The values of RI and C can be determined from the sensorgram of the measurement results and measurement conditions. Rmax was calculated according to the following method.

[15] = biological target: T9, FcgRIIIa type V extracellular domain with C-terminal His tag (human, UniProt P08637 17-208); assay: as above
T9 construct: extracellular domain; also called FcgRIIIaV; FcgRIIIa V; not shown: His tag at the C terminus
T9 sequence (P08637 17-208 F176V): as the sequence (P08637 17-208 F176V limits assumed) above
Description: as §3

[16] = biological target: T8, FcgRIIa type H extracellular domain …; assay: as above; remark: listed apart in the source
Description: as §3

[17] = biological target: T9, FcgRIIIa type V extracellular domain …; assay: as above; remark: listed apart in the source
Description: as §3

B1: H240-Kn120/H240-Hl073/L73-k0 (antibody, human IgG1, kappa)
heavy 1: QDQLVQSGAEVKKPGASVKVSCKASGFNIKDTYIQWVRQAPGQGLEWMGRIDPLRKQTKYREKFEGRVTITADTSTNTAYMELSSLRSEDTAVYYCVRSGREFDYWGQGTLVTVSSASTKGPSVFPLAPSSKSTSGGTAALGCLVKDYFPEPVTVSWNSGALTSGVHTFPAVLQSSGLYSLSSVVTVPSSSLGTQTYICNVNHKPSNTKVDKKVEPKSCDKTHTCPPCPAPEYYWGPMVFLFPPKPKDTLMISRTPEVTCVVVDVSDEDPEVKFNWYVDGVEVHNAKTKPREEQYNATYRVVSVLTVLHQDWLNGKEYKCKVSNKDLPAPIEKTISKAKGQPREPQVCTLPPSRDELTKNQVSLWCLVKGFYPSDIAVEWESNGQPENNYKTTPPVLDSDGSFFLYSKLTVDKSRWQQGNVFSCSVMHEALHNHYTQKSLSLSP
heavy 2: QDQLVQSGAEVKKPGASVKVSCKASGFNIKDTYIQWVRQAPGQGLEWMGRIDPLRKQTKYREKFEGRVTITADTSTNTAYMELSSLRSEDTAVYYCVRSGREFDYWGQGTLVTVSSASTKGPSVFPLAPSSKSTSGGTAALGCLVKDYFPEPVTVSWNSGALTSGVHTFPAVLQSSGLYSLSSVVTVPSSSLGTQTYICNVNHKPSNTKVDKKVEPKSCDKTHTCPPCPAPELLSGPSVFLFPPKPKDTLMISRTPEVTCVVVDVSHEEPEVKFNWYVDGVEVHNAKTKPREEQYNSTYRVVSVLTVLHQDWLNGKEYKCKVSNDALPKPIEETISKAKGQPREPQVYTLPPSRCELTKNQVSLSCAVKGFYPSDIAVEWESNGQPENNYKTTPPVLDSDGSFFLVSKLTVDKSRWQQGNVFSCSVMHEALHNHYTQKSLSLSP
light: DIQMTQSPSSLSASVGDRVTITCRASQDIHKYIAWYQQKPGQAPRLLIQYTSTLQPGVPSRFSGSGSGTDYTFTISSLQPEDIATYYCLQYEQLRTFGGGTKVEIKRTVAAPSVFIFPPSDEQLKSGTASVVCLLNNFYPREAKVQWKVDNALQSGNSQESVTEQDSKDSTYSLSSTLTLSKADYEKHKVYACEVTHQGLSSPVTKSFNRGEC
notes: Heterodimerized anti-epiregulin antibody; G236S in the Hl068 chain; also called H240-Kn120/H240-HI073/L73-k0
- Kd [1]: 15 nM
- Kd [2]: 1.8 nM
- Kd [3]: 210 nM
- Kd [4]: 8.2 nM
- Kd [5]: 21 nM
- Relative KD [6]: 1.3
- Relative KD [7]: 0.2
- Relative KD [8]: 0.7
- Relative KD [9]: 0.3
- Relative KD [10]: 2
- Kd [11]: < 0.028 nM

B2: IL6R-BP208/IL6R-L (antibody, human IgG1, kappa)
heavy: QVQLQESGPGLVKPSETLSLTCAVSGHSISHDHAWSWVRQPPGEGLEWIGFISYSGITNYNPSLQGRVTISRDNSKNTLYLQMNSLRAEDTAVYYCARSLARTTAMDYWGEGTLVTVSSASTKGPSVFPLAPSSKSTSGGTAALGCLVKDYFPEPVTVSWNSGALTSGVHTFPAVLQSSGLYSLSSVVTVPSSSLGTQTYICNVNHKPSNTKVDKKVEPKSCDKTHTCPPCPAPDLLGDDSVFLFPPKPKDTLMISRTPEVTCVVVDVSDEDGEVKFNWYVDGVEVHNAKTKPREEQYNSTYRVVSVLTVLHQDWLNGKEYKCKVSNKALPRPIEKTISKAKGQPREPQVYTLPPSRDELTKNQVSLTCLVKGFYPSDIAVEWESNGQPENNYKTTPPVLDSDGSFFLYSKLTVDKSRWQQGNVFSCSVMHEALHNHYTQESLSLSP
light: not shown
notes: Homodimer; IL6R-BP208 is IL6R-B3 with E233D, G237D, P238D, H268D, P271G and A330R
- Kd [12]: 850 nM
- Kd [13]: 850 nM
- Kd [14]: 8300 nM
- Kd [15]: 53000 nM
- Kd [16]: 8300 nM
- Kd [17]: 53000 nM

Reference: patent publication US20180155451A1 (published 2018)
